PMC5666746

Molecular target: recombinant extra-cellular domain sequence of DR5 (sDR5) protein (human)
Experiment: BLI; ForteBio Octet QKe; biotinylated sDR5 loaded on streptavidin sensors at 1 μM; scFv at two-fold serial dilutions 93.75-6000 nM in SD Buffer (PBS, pH 7.4, 0.02% Tween 20, 0.1% BSA); association 5 min, dissociation 10 min

Sequence of recombinant extra-cellular domain sequence of DR5 (sDR5) protein (human) (O14763 whole entry, the tested form may be a part): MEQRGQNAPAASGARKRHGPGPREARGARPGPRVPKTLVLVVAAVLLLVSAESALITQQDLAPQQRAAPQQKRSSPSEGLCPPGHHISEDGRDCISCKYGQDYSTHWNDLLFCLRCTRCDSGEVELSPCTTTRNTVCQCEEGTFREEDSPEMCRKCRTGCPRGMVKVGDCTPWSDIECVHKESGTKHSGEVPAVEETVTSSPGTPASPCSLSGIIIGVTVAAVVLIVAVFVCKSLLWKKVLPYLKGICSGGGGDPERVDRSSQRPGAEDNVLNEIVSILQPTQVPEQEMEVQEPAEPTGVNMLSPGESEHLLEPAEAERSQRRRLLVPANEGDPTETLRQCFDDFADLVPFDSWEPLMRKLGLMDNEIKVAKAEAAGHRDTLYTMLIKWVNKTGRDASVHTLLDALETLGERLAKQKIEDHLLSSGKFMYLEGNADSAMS

Kd: 126 nM
koff: 0.00144 s⁻¹
kon: 11500 M⁻¹ s⁻¹
B1: TR2-3, fully human agonistic anti-DR5 single chain fragment variable (scFv) antibody (scFv)
scFv: QVQLQESGPGLVKPSGTLSLTCAVSGGSISSSNWWSWVRQPPGKGLEWIGEIYHSGSTNYNPSLKSRVTISVDKSKNQFSLKLSSVTAADTAVYYCARGAAAGTANDAFDIWGQGTMVTVSSGGGGSGGGGSGGGGSETTLTQSPGILSLSPGERASLSCRASQSVPHNYLAWYQQKPGQAPRLLIYGASNRATGIPDRFSGSGSETDFTLTVTRLAPEDFAVYYCQQYGRSLTFGGGTKVEIKR
